One data set addresses T1, CYP79D61 (Erythroxylum fischeri, UniProt A0A1D8QQQ4).
T1 construct: complete ORF in pESC-Leu2d, Saccharomyces cerevisiae WAT11 microsomes
T1 sequence (A0A1D8QQQ4 1-531): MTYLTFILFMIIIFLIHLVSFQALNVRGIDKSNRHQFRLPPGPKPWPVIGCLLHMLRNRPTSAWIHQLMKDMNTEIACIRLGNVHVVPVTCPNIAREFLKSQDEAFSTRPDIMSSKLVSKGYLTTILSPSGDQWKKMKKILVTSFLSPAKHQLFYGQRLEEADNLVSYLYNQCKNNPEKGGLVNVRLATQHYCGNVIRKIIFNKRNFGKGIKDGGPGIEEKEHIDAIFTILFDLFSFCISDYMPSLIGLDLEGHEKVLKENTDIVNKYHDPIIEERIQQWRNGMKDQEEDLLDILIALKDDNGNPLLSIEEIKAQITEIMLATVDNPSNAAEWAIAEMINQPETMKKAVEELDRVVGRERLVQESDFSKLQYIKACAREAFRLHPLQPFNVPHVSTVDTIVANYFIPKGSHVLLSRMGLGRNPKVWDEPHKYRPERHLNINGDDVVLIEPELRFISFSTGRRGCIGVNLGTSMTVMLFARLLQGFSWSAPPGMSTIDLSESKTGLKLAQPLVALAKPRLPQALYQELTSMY
The data set can be described thus: aldoxime formation by recombinant yeast microsomes, LC-MS/MS. Type of data set: biochemical. Conditions: 1 mM substrate, 1 mM NADPH, 75 mM sodium phosphate pH 7.0, 25 °C.

Substrate in data set [1]: CC[C@H](C)[C@H](N)C(=O)O
As to the kind of experiment: cells, lysate or membranes. Conditions: 1 mM NADPH, 75 mM sodium phosphate pH 7.0, 25 °C.

Substrate in data set [2]: N[C@@H](Cc1ccc(O)cc1)C(=O)O
The data set can be described thus: cells, lysate or membranes. Conditions: 1 mM NADPH, 75 mM sodium phosphate pH 7.0, 25 °C.

Substrate in data set [3]: N[C@@H](Cc1c[nH]c2ccccc12)C(=O)O
As to the kind of experiment: aldoxime formation by recombinant yeast microsomes, LC-MS/MS. Type of data set: biochemical, Erythroxylum fischeri. As to conditions: 1 mM NADPH, 75 mM sodium phosphate pH 7.0, 25 °C.

Substrate in data set [4]: N[C@@H](Cc1ccccc1)C(=O)O
The description is as above. Type of data set: biochemical, Erythroxylum fischeri. Conditions: 1 mM NADPH, 75 mM sodium phosphate pH 7.0, 25 °C.

Substrate in data set [5]: N[C@@H](Cc1c[nH]c2ccccc12)C(=O)O
Described as above. Type of data set: biochemical, Erythroxylum coca. Conditions: 1 mM NADPH, 75 mM sodium phosphate pH 7.0, 25 °C.

Substrate in data set [6]: N[C@@H](Cc1ccccc1)C(=O)O
The data set is described as above. Type of data set: biochemical, Erythroxylum coca. Conditions: 1 mM NADPH, 75 mM sodium phosphate pH 7.0, 25 °C.

Substrate in data set [7]: N[C@@H](Cc1c[nH]c2ccccc12)C(=O)O
Described as above. Type of data set: biochemical, Erythroxylum coca. As to conditions: 1 mM NADPH, 75 mM sodium phosphate pH 7.0, 25 °C. The source says:
aldoxime formation by recombinant yeast microsomes, LC-MS/MS on CYP79D63
The source holds these as a separate data set.

As usually defined, the Km is the substrate concentration at which the rate is half of its maximum.

As for `N[C@@H](Cc1ccccc1)C(=O)O` [L-Phe], the “aldoxime formation by recombinant yeast microsomes, LC-MS/MS” value at CYP79D61 was “CYP79D62, CYP79D60, and CYP79D61 accepted all tested amino acids”.

B1: CYP79D60 (Erythroxylum fischeri) (protein)
chain: MTYLILILIMIITFLIHLVSFQALNVRGSDKSNRQQFQLPPGPKPWPVIGCLLQMLRNRPTSAWIHQLMKDMNTEIACIRLGNVHVIPVTCPNIAREFLKSQDEAFSSRPDFMSNKLVSKGYLTTALSPSGDQWKKMKKILVTSFLSPAKHKLFYGKRLEEADHLVSYLYNQCKNNPEKGGLVNVRLATQHYCGNVIRKIVFNKRNFGKGMEDGGPGIEEKEHIDALFTILFYLFSFCISDYMPSLIGLDLEGHEKVLRENTDIVNKYHDPIIEERIQQWRNGMKDQEEDLLDILIALKDDNGSPLLSIEEIKAQITEIMIAAVDNPSNAAEWAIAEMINQPETMKKAVEELDRAVGRERLVQESDFSKLKYIKACAREAFRLHPMEAFNVPHVSTVDTIVANYFIPKGSHVLLSRMGIGRNPKVWDEPHKYKPERHLKNGDDVVLTEPELRFISFSTGRRGCIGVNLGTSMTVMLFARLLQGFSWSAPPGMSTIDLSESKTGLKLAQPLVALAKPRLPQALYQELTSCINHS
notes: complete ORF in pESC-Leu2d, Saccharomyces cerevisiae WAT11 microsomes
As for B1, the Km amounted to 1.28 ± 0.25 mM in data set [1], 6.09 ± 1.32 mM in data set [2], 2.74 ± 0.11 mM in data set [3] and 0.58 ± 0.05 mM in data set [4].

B2: CYP79D62 (Erythroxylum coca) (protein)
chain: MTYLILILIMIILVSFQALNVRCNDKSNRHQLQLPPGPKPWPVIGCLPQMLRNRPTFAWIHQLMKDMNTEIACIRLGNVHVIPVTCPNIAREFLKSQDEAFSSRPDFMSNKLVSKRYLTTALSPSGDQWKKMKKILVTSFLSPAKHQLFYGKRLEEADNLVSYLYGQCKNNPEKGGLVNVRLATRHYCGNVIRKIVFNKRNFGEGMKDGGPGIEEKEHIDAIFTILSYLFSFCISDYMPSLIGLDLEGHEKVLKENTDIVNKYHDPIIEERIQQWRNGMKDREEDLLDILIALKDDNGNPLLSIEEIKAQITEIILATVDNPSNAAEWAIAEMINQPEMMKKAVEELDRVVGRERLVQESDFVKLQYVKACAREAFRLHPLEPFNIPHVSTVDTTVANYFIPKGSHVLLSRMGLGRNPKVWDEPHKYKPERHLSNGDDVVLIEPELRFISFSTGRRGCIGVNLGTSMTVMLFARLLQGFSWSAPPGKLAINLNESKTGLALAQPLVALAKPRLPQALYQELTSCINHS
notes: as for B1
B2: the Km in data set [1] came out at 3.27 ± 0.42 mM; in data set [2], 4.99 ± 0.46 mM; in data set [5], 1.09 ± 0.04 mM; in data set [6], 0.67 ± 0.07 mM.

B3: CYP79D63 (Erythroxylum coca) (protein)
chain: MTYLILILIMIISFLIHLVSFQALNVRGSGKSNRHQFQLPPGPKPWPVIGCLPQMLRNRPTFAWIHQLMKDMNTEIACIRLGSIHVIPVTCPNIAREILKSQDEAFSSRPDFMSSTLVSRGYLATTLSPPGDQWKKMRKILVTSCLSPAKHRLFYRKRLEVADNLVSYLYSQCKDNPEKGGLVNVRLATQHYCGNVIRKIVFNKRNFGKGMKDGGPGIEEKEHIDALFTILFYVFSFCISDYMPSLIGLDLEGHEKVLKENTDIVNKYHDPIIQERIRQWRNGMKDQEEDLLDILIALKDNNGNPLLSIEEIKAQITEIVLASVDNPSNAAEWAIAEMINQPKIMKKAVEELDSVVGSERLVQESDFSKLQYVKACAREAFRLHPMQPFNVPHVSTMDTTIANYFIPKGSHVLLSRMRLGRNSKVWDEPHKYRPERHLSNGDDVLLIEPELRFISFSTGRRGCIGVNLGTSMTIMLFARLLQGFNWSAPPGKSAVDLNESKIGLTLAQPLVALAKPRLPQALYQELTSCINHS
notes: as for B1
For the molecule B3, in data set [7], the Km is on record as 0.48 ± 0.05 mM.
